Test results as given in the supplement of paper PMC9170038.

System: MS2 coat protein
Experiment: apparent KD of MS2 coat protein; higher = weaker reporter binding
Details: Eterna round: R107
Method in brief: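 Apparent KD stands for the median, per design, of fits to normalised cluster binding curves. The curves came from titrating on-chip-transcribed RNA switches on Illumina sequencing clusters with SNAP-549-labelled MS2 coat protein, twofold from 0.7 or 1.5 nM to 3 µM. Buffer was 100 mM Tris-HCl pH 7.5, 80 mM KCl, 4 mM MgCl2, without or with constant ligand.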

[1] = input ligand: theophylline 20 uM
[2] = input ligand: theophylline 2 mM
[3] = input ligand: tryptophan 2.4 mM

Sequence | apparent KD of MS2 coat protein (input ligand: arginine 13.2 mM) [nM] | apparent KD of MS2 coat protein (input ligand: none) [nM] | apparent KD of MS2 coat protein [1] [nM] | apparent KD of MS2 coat protein [2] [nM] | apparent KD of MS2 coat protein [3] [nM]
ACGGAGAUUGCUAAAUGUUGGCGAGCGGAUACCAGCCUAUAAUCGGGCCCUUGGCAGCCGACAUGAGGAUCACCCAUGUAAACAA [Gelelaor] | 12.3 | 121 | 98.9 | 87.3 | 58.6
ACGUAAAGCAGAAGGAGCGUCUUCAAAUUACAUGAGGAUCACCCAUGUUUUGUGAUCAUAUGACAGGUAGGUCGCUGAAGUACGA [JR_SSArginiB_Sub003] | 58.3 | 71.7 | 97.5 | 86.4 | 66.5
ACGUAAUGCAGAAGGAGCGUCUUUUUAAAACAUGAGGAUCACCCAUGUAAUAUUUAUGGGAGACAGGUAGGUCGCUGAAGUACGA [JR_SSArginiB_Sub006] | 30.3 | 23.5 | 32.3 | 22.3 | 25.3
ACGUUGUAGUCGGCCGCCACUGUUUUCAUGUUCAACAUGAGGAUCACCCAUGUACCUUUUUUUAUCAGGACCGGGACGUAUUCGA [JR_SSTryptoB_Sub003] | 46.5 | – | 102 | 96.8 | –
ACUAGAGGUGGAAGGAGCGGGAGACAUGAGGAUCACAUGAGGAUCACCCAUGUAGGAUCAUCCCAGGUAGGUCGCCAUGUCGAAA [,mmlmullin] | 46 | 979 | 255 | 456 | 293
ACUCGACCAUCAGCCAUUUGUGAAUCACGGCGAGGACCGGUACGGCCGCCACUCGACAUGAGGAUCACCCAUGUAAGACCGGUGU [vmullin3] | 24 | – | 37.8 | 39.6 | –
ACUCGGUGUUUGUUGCUCCGAGUGUAUGAUACCAGUUAGUUUUAUGGCCCUUGGCAGCAUAGGACAUGAGGAUCACCCAUGUGUU [#02 SameState-TheophyllineA] | 27.3 | – | 41.1 | – | 34.9
ACUCGGUGUUUGUUGCUCCGAGUUUAUGAUACCAGUUAGUUUUAUGGCCCUUGGCAGCAUAGGACAUGAGGAUCACCCAUGUGUU [#03 SameState-TheophyllineA] | 26.2 | – | 38.6 | – | 32.2
ACUUUGUCGGGUGAUACCAGCCUCGGCACAUCUCGUGCCGAACAUGAGGAUCACCCAUGUGGCCCUUGGCAGCACAUGACAAAUC [Isredior] | 70.1 | – | 522 | – | 423
AGAAGUCCAGACUACACGUGGAAAAGCGAUACCAGACUCAUAGGUGUCCCUUGGCAGCGCGUAACAUGAGGAUCACCCAUGUGAU [theeternabot_exclusion_MS2_Theo_A_9] | 66.8 | – | 190 | – | 133
AGACAUGAGGAUCACCCAUGUAGUACGGAUACCAGAUCCAGAUGCGUCCCUUGGCAGCUGUAGUACAGCGUUACGUCGCUCAUAG [Exclusion - Theophylline A (Freestyle 26)] | 20.3 | – | 48.1 | – | 28.4
AGACAUGAGGAUCACCCAUGUAGUACGGAUACCAGAUCCAGAUGUAUCCCUUGGCAGCUGUGGUACAGCGUUACAUCGCUCCUAG [Exclusion - Theophylline A (Freestyle 20)] | 15.9 | – | 24.4 | – | 15.8
AGACAUGAGGAUCACCCAUGUAGUAUGGAUACCAGAUCCAGAUUUAUCCCUUGGCAGCUGUGGUACAGCGUUGCAACGCUCCUAG [Exclusion - Theophylline A (Freestyle 14)] | 30.4 | – | 38.7 | – | 31.8
AGAGAGGCGCAUGAUACCAGCUUGGCCUAACAUGAGGAUCACCCAUGUCAAUGGGCCUUAAGCCCUUGGCAGCAUAGGGUGUCCU [Xeestixexe] | 72.7 | 72.1 | 186 | 25.9 | 85.9
AGAGAUGAACAUGAGGAUCACCCAUGUAAACGAGGACCGGUACGGCCGCCACUCGUGGGUGUAAUAGAAUAAUAAGAGAAUAAUA [Turkey 1] | 24.4 | 63.2 | 92 | 59.6 | 75.5
AGAGUCAGACAAAAGUCUGGCUCAGCCGAAGGAGCGUCCGAAAGGACAGGUAGGUCGCGGUUACCUGAGGAUCACCCAGGUUCCU [ArgAS 24 #OpenEnded #AlternativeMS2] | 53.8 | 139 | 86.9 | 115 | 91.5
AGAGUCUAGUCGGCCGCCACUCAUGUCCAAUGGACAUGAGGAUCACCCAUGUACCGAAGGUACAUGAGGACCGGGACUGGACUCA [Omei Tryp B SS C v6] | 43.6 | – | 496 | 330 | –
AGAGUUAGACAAAAGUCUAGCUCACCAGAAGGAGCGUCCGAAAGGACAGGUAGGUCGCUGGUGCACGAGGAUCACCCGUGUUCCU [ArgAS 21 #OpenEnded #AlternativeMS2] | 57.9 | 80.6 | 90.2 | 118 | 67.3
AGAUCUUUCGAAAGAAGGAUCUUGUCUGAUACCAGAGACGAAAGUCUCCCUUGGCAGCAGUGCCAACAUGAGGAUCACCCAUGUA [Theophylline A 12] | 22 | – | 24.7 | – | 21.3

Sequence | apparent KD of MS2 coat protein (input ligand: arginine 13.2 mM) [nM] | apparent KD of MS2 coat protein (input ligand: none) [nM] | apparent KD of MS2 coat protein [1] [nM] | apparent KD of MS2 coat protein [2] [nM] | apparent KD of MS2 coat protein [3] [nM]
AGAUUCGACACGGCCGCCACUCGUGACAGAUUUCGCAGUGGUCAACAUGAGGAUCACCCAUGUCUGAGGACCGGGUGUUGAGUCU [XTryp B #9] | 36.4 | – | 39.3 | 41.1 | –
AGAUUCGACACGGCCGCCACUCUACACGGAUUUCCGAGUGUCGAACAUGAGGAUCACCCAUGUGGGAGGACCGGGUGUUGAGUCU [XTryp B #11] | 164 | – | 704 | 944 | –
AGAUUCGACACGGCCGCCACUUGUGGUGGAGGGUCUUUAGUCACACAUGAGGAUCACCCAUGUACAAGGACCGGGUGUUGAGUCU [XTryp B #23] | 19.1 | 19.3 | 14.2 | 25.4 | 36.3
AGAUUCGACACGGCCGCCACUUUCAGUGGCUGGUCACAUGGUGCACAUGAGGAUCACCCAUGUGGAAGGACCGGGUGUUGAGUCU [XTryp B #25] | 23 | – | 45.2 | 38.3 | –
AGCAAGCAACAUGAGGAUCACCCAUGUGAAGGAGCGCCGAAUAAGGCAGGUAGGUCGCACAUGAAUAAAUCAUGUAAAAGCUUGC [MAT - Exclusion Arginine A - Mod of Eli - D23] | 104 | 185 | 164 | 68.1 | 138
AGCACUGUGACGGCCGCCACUACAUAAAUUGGGUGGUCAGGUUCAUUACAUGAGGAUCACCCAUGUAGGACCGGGUCUCAGUGCA [Omei Trp Exc B A v8] | 15.9 | 11.4 | 20.6 | 13.3 | 7.33
AGCAGUACAACAGAUACCAGACUUUUAAUGCCUCUAAUUACAUGAGGAUCACCCAUGUUUGUCCCUUGGCAGCUGUUGUACUGCA [JR_ExcTheophyB_Sub010] | 72.4 | – | 200 | – | 124
AGCCACUCGAGUGAUCCUCACGAGUGGCUACGAGGACCGGUACGGCCGCCACUCGAAUUAACAUGAGGAUCACCCAUGUAAUCUC [Brourdmod06] | 38.7 | – | 238 | 344 | –
AGCCAUGGAAACAUGGCGGCGGCUUGAGCGCGAGGACCGGUACGGCCGCCACUCGGGCAACAUGAGGAUCACCCAUGUUCCUCAU [ETA NP+V+V2 #19] | 64 | 113 | 104 | 75.7 | 190
AGCGAUAUGCAUGAUACCAGCUACAUGAGGAUCACCCAUGUGCGUCAGAAAUGACUGUGUAGCCCUUGGCAGCAUAAAGCAUGUA [Exclusion - Theophylline B (Freestyle 10)] | 32.3 | – | 50.7 | – | 38.5
AGCGAUAUGCAUGAUACCAGCUACAUGAGGAUCACCCAUGUGCGUCAGUAAUGACUGUGUAGCCCUUGGCAGCAUAGAGCAUGUA [Exclusion - Theophylline B (Freestyle 12)] | 29.5 | – | 47.2 | – | 34.7
AGCGUUCGGUUUAUGCCGGACAAUGGGUGACGAGGACCGGUACGGCCGCCACUCGGGCGCCCGGUUACAUGAGGAUCACCCAUGU [Oresrile] | 74.3 | – | 190 | 200 | –
AGCUCAUAGAGUGAUACCAGACUACAUGAGGAUCACCCAUGUUUCUUUUGGUUAUCAUGUGUCCCUUGGCAGCACAAGAAGAGCA [JR_ExcTheophyB_Sub015] | 13.4 | – | 20.2 | – | 12.7
AGCUCGCAUCCUCUAGCGUCAAAGACGCGUCGAGGACCGGUACGGCCGCCACUCGACUUGAGGAUCACCCAGGUCAAAGCGAGCA [TrypAX 13 #SwitchBubble #AlternativeMS2 #MS2Late #CuTurnoff] | 148 | 545 | 488 | 631 | 138
AGGUGCGGCACGGCCGCCACUGCGGUGGUGUGACAUGAGGAUCACCCAUGUUGUCAUGCGGCCCUUAGGACCGGGUGGCGUGCCU [#1 Exclusion - Tryptophan B Attempt #16 (HarryS)] | 27.9 | – | 64.4 | 68.9 | –
AGUACUCGAACGGAUACCAGCCGGACAUGAGGAUCACCCAUGUCCUACCAUGUUUCGGUUGGCCCUUGGCAGCCGUUCGUGUACA [Omei Theo B SS A v1] | 207 | – | 428 | – | 736
AGUACUCGAACGGAUACCAGCCGGACAUGAGGAUCACCCAUGUCCUACCAUUGUUCGGUUGGCCCUUGGCAGCCGUUCGUGUACA [Omei Theo B SS A v4] | 125 | 930 | 366 | 26.7 | 591
AGUAUACAUUCUGAUACCAGAGACAUGAGGAUCACCCAUGUCCGAUCGUCCUGCCUCAGACUCCCUUGGCAGCAGGAUAUGUGCU [Exclusion Theophylline B GF5] | 16.2 | – | 21.8 | – | 16.6
